For experiment [1], the target named is CD16 (FcγRIIIA) receptor expressed on Jurkat-CD16 cells (human, UniProt P08637 17-208). Kind of experiment: cell-based or functional assay.
For experiment [2], the target named is T1, CD20 antigen expressed on Raji cells (UniProt P11836 1-297, limits assumed).
T1 construct: whole, on cells; Raji is a human B cell line
T1 sequence (looked up): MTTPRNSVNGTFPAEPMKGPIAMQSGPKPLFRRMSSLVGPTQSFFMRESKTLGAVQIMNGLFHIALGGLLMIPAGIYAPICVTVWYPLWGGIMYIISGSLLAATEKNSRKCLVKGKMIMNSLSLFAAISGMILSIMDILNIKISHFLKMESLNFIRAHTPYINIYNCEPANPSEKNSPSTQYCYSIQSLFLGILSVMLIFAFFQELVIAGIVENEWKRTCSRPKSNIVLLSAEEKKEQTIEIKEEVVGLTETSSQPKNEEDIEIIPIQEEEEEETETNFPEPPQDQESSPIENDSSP
The experiment can be described thus: flow cytometry competition on Raji cells; competitor CAT-13.6E12 detected with PE anti-mouse IgG. On the technique in general: In flow cytometry, cells or beads pass a laser one at a time.

In experiment [3] the target is T1, CD20 antigen expressed on Raji cells. Kind of experiment: specificity study, as for EMAB6 (competition with CAT-13.6E12 on Raji cells); no details given.

This note sets out measurements from US20090053233A1 (LABORATOIRE FRANCAIS DU FRACTIONNEMENT ET DES …, published 2009).

CD16 (FcγRIIIA) receptor expressed on Jurkat-CD16 cells, sequence (P08637 17-208): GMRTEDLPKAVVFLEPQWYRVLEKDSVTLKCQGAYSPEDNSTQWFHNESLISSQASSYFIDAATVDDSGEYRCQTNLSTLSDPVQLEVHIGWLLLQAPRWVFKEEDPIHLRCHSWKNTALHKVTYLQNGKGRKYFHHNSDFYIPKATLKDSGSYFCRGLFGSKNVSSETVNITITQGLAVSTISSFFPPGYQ

B1: anti-CD20 chimeric antibody EMAB6 produced by clone R509 (YB2/0 cell line) (antibody, human IgG1, kappa)
heavy: not shown
light: QIVLSQSPAILSASPGEKVTMTCRASSSVSYMHWYQQKPGSSPKPWIYATSNLASGVPARFSGSGSGTSYSFTISRVEAEDAATYYCQQWTFNPPTFGGGTRLEINRTVAAPSVFIFPPSDEQLKSGTASVVCLLNNFYPREAKVQWKVDNALQSGNSQESVTEQDSKDSTYSLSSTLTLSKADYEKHKVYACEVTHQGLSSPVTKSFNRGEC
notes: Murine-human chimeric IgG1 kappa (murine CAT-13.6E12 variable regions, human gamma1 and kappa constant regions), produced in rat YB2/0 cells, low fucose; The cloned V fragments carry the natural signal peptide; also called chimeric EMAB6 antibody; AMAB6
Turning to B1, in experiment [1], the “Rituxan® EC50/EMAB6 EC50 ratio, IL-2 secretion by Jurkat-CD16 cells in the presence of Raji cells” value is ~15 ratio. Further, in experiment [2], the binding result is given as “binds”.

B2: anti-CD20 chimeric antibody EMAB603 produced by clone R603 (YB2/0 cell line) (antibody, human IgG1, kappa)
heavy: not shown
light: QIVLSQSPAILSASPGEKVTMTCRASSSVSYMHWYQQKPGSSPKPWIYATSNLASGVPARFSGSGSGTSYSFTISRVEAEDAATYYCQQWTFNPPTFGGGTRLEIKRTVAAPSVFIFPPSDEQLKSGTASVVCLLNNFYPREAKVQWKVDNALQSGNSQESVTEQDSKDSTYSLSSTLTLSKADYEKHKVYACEVTHQGLSSPVTKSFNRGEC
notes: Murine-human chimeric IgG1 kappa; Produced in rat YB2/0 cells; also called chimeric EMAB603 antibody; EMBA603
B2: the binding result in experiment [3] is listed as “binds”.
